The values below come from article PMC10011731.

The experiment deals with Taxol-stabilized microtubules (bovine brain tubulin) (bovine) (UniProt Q6B856). The experiment is described as follows: TIRF microscopy of purified proteins on surface-bound microtubules (in vitro reconstitution); Taxol-stabilised biotinylated microtubules bound to NeutrAvidin coverslips; 100 nM CLASP2α-GFP or 100 nM GFP-L-TOG2-S with […] TRITC-phalloidin F-actin flowed in; imaging buffer with MRB80, Taxol, 0.2 mM ATP; 35°C; PCC after 10 min, time-lapse up to 40 min.

In turn, “His-CLASP2α-EGFP-Strep (natural protein)” yielded a Pearson correlation coefficient (PCC) of the CLASP2α-GFP and microtubule signals of 0.88.
